Laboratory results as given in US20160376363A1 (ALDER BIOPHARMACEUTICALS, published 2016).

Assays:
human PACAP38 = biological target: T1, human PACAP38 (human, C-terminal lysine is amidated; N-terminally or C-terminally biotinylated in the HTRF and cell binding assays); experiment: SPR (ProteOn XPR36), antibody amine-coupled to chip, peptide as analyte, 1:1 Langmuir fit
T1 construct: Synthetic peptide (American Peptide; biotinylated forms from AnaSpec); also called PACAP 1-38; wild-type PACAP peptide (1-38)
T1 peptide: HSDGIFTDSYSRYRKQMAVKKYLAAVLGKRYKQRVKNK

human PACAP27 = biological target: T2, human PACAP27 (human, C-terminal leucine is amidated; 125I-labelled in Example 10); experiment: as above
T2 construct: also called 125I-labelled PACAP27
T2 peptide: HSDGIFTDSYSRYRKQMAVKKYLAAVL

B1: Ab21 (antibody, V domains shown)
VH: QSVEESGGRLVTPGTPLTLTCTVSGIDLSSYYMTWVRQAPGKGLEWVGFIDAGGSAYYATWAKGRFTISKASTTVDLKITSPTTEDTATYFCARDLDLWGPGTLVTVSS
VL: AAVLTQTPSPVSAAVGGTVSISCKSSESVYGDYLAWFQQKPGQPPKQLIYDASTLASGVPSRFKGSGSGTQFTLTISGVQCDDAATYYCAGGYVSAGVAFGGGTEVVVKR
B1 was tested, and the Kd (human PACAP38) was 0.027 nM, the koff (human PACAP38) was 1e-05 s⁻¹ and the Kd (human PACAP27) was 0.013 nM. For the same binder, the koff (human PACAP27) was 1e-05 s⁻¹.
